From paper PMC4770236

Tests used:
[1] = biological target: TRF2 (Telomeric Repeat-binding Factor 2), full length (human); assay: ITC
[2] = biological target: TRFH domain of TRF2 (TRF2 dimerization domain) (human); assay: ITC
[3] = biological target: TRF2 (Telomeric Repeat-binding Factor 2), full length (human); assay: SAXS
[4] = biological target: TRF2 (Telomeric Repeat-binding Factor 2), full length (human); assay: SEC-MALS + ITC
[5] = biological target: TRF2 (Telomeric Repeat-binding Factor 2), full length (human); assay: ITC; remark: listed apart in the source
RAP1 = biological target: T1, RAP1 (human, UniProt Q9NYB0 1-399); assay: ITC
T1 sequence: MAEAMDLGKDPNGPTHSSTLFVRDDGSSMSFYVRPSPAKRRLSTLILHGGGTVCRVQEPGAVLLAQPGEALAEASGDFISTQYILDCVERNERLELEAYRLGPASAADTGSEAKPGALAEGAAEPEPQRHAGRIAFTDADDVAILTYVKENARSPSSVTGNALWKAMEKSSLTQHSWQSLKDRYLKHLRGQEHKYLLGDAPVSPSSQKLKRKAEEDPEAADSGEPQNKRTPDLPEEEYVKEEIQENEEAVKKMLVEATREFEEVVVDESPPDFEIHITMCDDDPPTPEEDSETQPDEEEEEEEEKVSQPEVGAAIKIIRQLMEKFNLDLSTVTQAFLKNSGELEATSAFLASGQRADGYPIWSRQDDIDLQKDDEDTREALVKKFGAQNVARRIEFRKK

Molecule: Apollo-YLP peptide (Apollo residues 494-511)
- Kd [1]: 46 nM
- Kd [2]: 59 nM

Molecule: TRF2 (Telomeric Repeat-binding Factor 2), full length (natural protein)
- stoichiometry N [3]: 2
- stoichiometry N [4]: 2

B1: RAP1 (Repressor Activator Protein 1), full length (natural protein)
chain: MAEAMDLGKDPNGPTHSSTLFVRDDGSSMSFYVRPSPAKRRLSTLILHGGGTVCRVQEPGAVLLAQPGEALAEASGDFISTQYILDCVERNERLELEAYRLGPASAADTGSEAKPGALAEGAAEPEPQRHAGRIAFTDADDVAILTYVKENARSPSSVTGNALWKAMEKSSLTQHSWQSLKDRYLKHLRGQEHKYLLGDAPVSPSSQKLKRKAEEDPEAADSGEPQNKRTPDLPEEEYVKEEIQENEEAVKKMLVEATREFEEVVVDESPPDFEIHITMCDDDPPTPEEDSETQPDEEEEEEEEKVSQPEVGAAIKIIRQLMEKFNLDLSTVTQAFLKNSGELEATSAFLASGQRADGYPIWSRQDDIDLQKDDEDTREALVKKFGAQNVARRIEFRKK
- KD of the high affinity site (two-independent sites model) [5]: < 1 nM
- KD of the lower affinity site (two-independent sites model) [5]: 0.5 µM

B2: T2-S1-S2 (T2AG3 duplex) (dsDNA)
DNA 1: CTAGGGTTAGGGTTAG
DNA 2: CTAACCCTAACCCTAG
- binding result (RAP1): no binding
